Test results taken from article PMC6176576.

Biological target: mtPaf1 (subunit of the four-subunit mtPaf1 complex) (Myceliophthora thermophila)
Test: co-purification, SDS/PAGE

stoichiometry N	Substance
1	mtCdc73 (subunit of the four-subunit mtPaf1 complex) (natural protein)
1	mtLeo1 (subunit of the four-subunit mtPaf1 complex) (natural protein)
